The test deals with T1, RGD-decorated Fc-dextran-MMAE construct 20 (cyclo[RGDfK] multimer) (also: multivalent on dextran conjugated to aglycosylated human Fc N297A with MMAE).
T1 chain: cyclo(RGD[dF]K([Propanoyl(3-triazol-4-yl)-dextran]))
Briefly: flow cytometry cell binding (apparent KD). A general note: In flow cytometry, cells or beads pass a laser one at a time.

Numbered stars: 1 amine (or outer) side, 2 acyl side, 3 side chain; on linkers, the order of the positions; unused ones are H or OH. Square brackets hold non-standard residues; d marks the D form. Side chains are listed from the residue outwards. dextran = polysaccharide of α-(1–6)-linked D-glucose units with low branching; Propanoyl(3-triazol-4-yl) = O=C(CCc1cn([*:1])nn1)[*:2]

B1: integrin alpha-v beta-3 (on U87MG cells) (protein)
chain 1: FNLDVDSPAEYSGPEGSYFGFAVDFFVPSASSRMFLLVGAPKANTTQPGIVEGGQVLKCDWSSTRRCQPIEFDATGNRDYAKDDPLEFKSHQWFGASVRSKQDKILACAPLYHWRTEMKQEREPVGTCFLQDGTKTVEYAPCRSQDIDADGQGFCQGGFSIDFTKADRVLLGGPGSFYWQGQLISDQVAEIVSKYDPNVYSIKYNNQLATRTAQAIFDDSYLGYSVAVGDFNGDGIDDFVSGVPRAARTLGMVYIYDGKNMSSLYNFTGEQMAAYFGFSVAATDINGDDYADVFIGAPLFMDRGSDGKLQEVGQVSVSLQRASGDFQTTKLNGFEVFARFGSAIAPLGDLDQDGFNDIAIAAPYGGEDKKGIVYIFNGRSTGLNAVPSQILEGQWAARSMPPSFGYSMKGATDIDKNGYPDLIVGAFGVDRAILYRARPVITVNAGLEVYPSILNQDNKTCSLPGTALKVSCFNVRFCLKADGKGVLPRKLNFQVELLLDKLKQKGAIRRALFLYSRSPSHSKNMTISRGGLMQCEELIAYLRDESEFRDKLTPITIFMEYRLDYRTAADTTGLQPILNQFTPANISRQAHILLDCGEDNVCKPKLEVSVDSDQKKIYIGDDNPLTLIVKAQNQGEGAYEAELIVSIPLQADFIGVVRNNEALARLSCAFKTENQTRQVVCDLGNPMKAGTQLLAGLRFSVHQQSEMDTSVKFDLQIQSSNLFDKVSPVVSHKVDLAVLAAVEIRGVSSPDHVFLPIPNWEHKENPETEEDVGPVVQHIYELRNNGPSSFSKAMLHLQWPYKYNNNTLLYILHYDIDGPMNCTSDMEINPLRIKISSLQTTEKNDTVAGQGERDHLITKRDLALSEGDIHTLGCGVAQCLKIVCQVGRLDRGKSAILYVKSLLWTETFMNKENQNHSYSLKSSASFNVIEFPYKNLPIEDITNSTLVTTNVTWGIQPAPMPV
chain 2: GPNICTTRGVSSCQQCLAVSPMCAWCSDEALPLGSPRCDLKENLLKDNCAPESIEFPVSEARVLEDRPLSDKGSGDSSQVTQVSPQRIALRLRPDDSKNFSIQVRQVEDYPVDIYYLMDLSYSMKDDLWSIQNLGTKLATQMRKLTSNLRIGFGAFVDKPVSPYMYISPPEALENPCYDMKTTCLPMFGYKHVLTLTDQVTRFNEEVKKQSVSRNRDAPEGGFDAIMQATVCDEKIGWRNDASHLLVFTTDAKTHIALDGRLAGIVQPNDGQCHVGSDNHYSASTTMDYPSLGLMTEKLSQKNINLIFAVTENVVNLYQNYSELIPGTTVGVLSMDSSNVLQLIVDAYGKIRSKVELEVRDLPEELSLSFNATCLNNEVIPGLKSCMGLKIGDTVSFSIEAKVRGCPQEKEKSFTIKPVGFKDSLIVQVTFDCDCACQAQAEPNSHRCNNGNGTFECGVCRCGPGWLGSQCECSEEDYRPSQQDECSPREGQPVCSQRGECLCGQCVCHSSDFGKITGKYCECDDFSCVRYKGEMCSGHGQCSCGDCLCDSDWTGYYCNCTTRTDTCMSSNGLLCSGRGKCECGSCVCIQPGSYGDTCEKCPTCPDACTFKKECVECKKFDRGALHDENTCNRYCRDEIESVKELKDTGKDAVNCTYKNEDDCVVRFQYYEDSSGKSILYVVEEPECPKGPD
Take B1: the Kd was found to be 33 nM.

These data come from article PMC8339797 (2021).
